Assay results as given in US20250295737A1 (AstraZeneca / MedImmune, published 2025).
Residue numbers refer to the chain shown, from its start.

T1: human RXFP1 (human, UniProt Q9HBX9 1-757)
T1 sequence (looked up): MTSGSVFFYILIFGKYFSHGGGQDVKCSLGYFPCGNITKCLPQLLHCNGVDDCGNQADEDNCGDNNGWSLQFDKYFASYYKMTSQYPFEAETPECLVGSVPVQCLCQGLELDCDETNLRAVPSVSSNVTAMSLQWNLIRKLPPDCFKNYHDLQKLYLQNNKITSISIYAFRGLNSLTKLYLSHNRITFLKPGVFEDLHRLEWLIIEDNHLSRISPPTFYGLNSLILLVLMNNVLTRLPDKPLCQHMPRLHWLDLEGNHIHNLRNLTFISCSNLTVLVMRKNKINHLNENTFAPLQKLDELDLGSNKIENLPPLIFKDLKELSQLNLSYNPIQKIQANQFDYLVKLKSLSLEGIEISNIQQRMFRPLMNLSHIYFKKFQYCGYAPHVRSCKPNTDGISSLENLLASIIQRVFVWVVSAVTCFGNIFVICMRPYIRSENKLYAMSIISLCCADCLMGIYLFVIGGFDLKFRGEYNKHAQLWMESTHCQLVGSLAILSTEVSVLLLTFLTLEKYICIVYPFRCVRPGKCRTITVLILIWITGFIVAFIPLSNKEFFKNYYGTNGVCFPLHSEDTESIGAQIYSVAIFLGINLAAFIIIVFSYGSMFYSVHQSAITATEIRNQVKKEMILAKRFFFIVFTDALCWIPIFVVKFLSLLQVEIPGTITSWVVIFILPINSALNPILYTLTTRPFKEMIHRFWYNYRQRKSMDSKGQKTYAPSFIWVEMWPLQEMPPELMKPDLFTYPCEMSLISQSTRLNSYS

T2: mouse RXFP1 (mouse, UniProt Q6R6I7 1-758)
T2 sequence (looked up): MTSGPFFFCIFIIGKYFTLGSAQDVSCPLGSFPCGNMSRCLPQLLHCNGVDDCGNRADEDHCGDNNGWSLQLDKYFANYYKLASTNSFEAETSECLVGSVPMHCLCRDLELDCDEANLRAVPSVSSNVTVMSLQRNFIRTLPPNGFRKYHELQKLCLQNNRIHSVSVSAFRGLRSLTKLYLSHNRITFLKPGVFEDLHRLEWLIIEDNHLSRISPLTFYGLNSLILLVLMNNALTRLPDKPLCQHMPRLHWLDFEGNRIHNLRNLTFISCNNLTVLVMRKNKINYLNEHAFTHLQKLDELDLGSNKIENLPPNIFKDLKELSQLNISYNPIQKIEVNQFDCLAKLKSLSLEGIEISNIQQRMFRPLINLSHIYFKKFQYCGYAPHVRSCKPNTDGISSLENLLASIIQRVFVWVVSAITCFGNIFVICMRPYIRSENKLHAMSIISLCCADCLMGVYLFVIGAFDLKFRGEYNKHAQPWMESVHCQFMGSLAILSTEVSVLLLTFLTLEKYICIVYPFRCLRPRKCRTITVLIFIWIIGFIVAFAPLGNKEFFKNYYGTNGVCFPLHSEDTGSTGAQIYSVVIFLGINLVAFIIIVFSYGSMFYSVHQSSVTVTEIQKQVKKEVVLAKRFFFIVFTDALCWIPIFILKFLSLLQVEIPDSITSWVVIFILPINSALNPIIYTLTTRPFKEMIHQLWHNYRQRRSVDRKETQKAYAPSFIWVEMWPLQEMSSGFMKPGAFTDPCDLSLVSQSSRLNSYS

B1: RELAX0020 (Fc fusion)
chain 1: GGAGGACPPCPAPEFEGGPSVFLFPPKPKDTLMISRTPEVTCVVVDVSHEDPEVKFNWYVDGVEVHNAKTKPREEQYNSTYRVVSVLTVLHQDWLNGKEYKCKVSNKALPASIEKTISKAKGQPREPQVYTLPPCREEMTKNQVSLWCLVKGFYPSDIAVEWESNGQPENNYKTTPPVLDSDGSFFLYSKLTVDKSRWQQGNVFSCSVMHEALHNHYTQKSLSLSPGGGGGSGGGGSGGGGSGGGGGSSWMEEVIKLCGRELVRAQIAICGMSTWS
chain 2: GGAGGACPPCPAPEFEGGPSVFLFPPKPKDTLMISRTPEVTCVVVDVSHEDPEVKFNWYVDGVEVHNAKTKPREEQYNSTYRVVSVLTVLHQDWLNGKEYKCKVSNKALPASIEKTISKAKGQPREPQVCTLPPSREEMTKNQVSLSCAVKGFYPSDIAVEWESNGQPENNYKTTPPVLDSDGSFFLVSKLTVDKSRWQQGNVFSCSVMHEALHNHYTQKSLSLSPGGGGGSGGGGSGGGGSGGGGGSQLYSALANKCCHVGCTKRSLARFC
B2: RELAX0021 (Fc fusion)
chain 1: B1 chain 2 with C130Y, S147W, A149L, V188Y
chain 2: B1 chain 1 with C135S, W147S, L149A, Y188V
B3: RELAX0024 (Fc fusion)
chain 1: DKTHTCPPCPAPEFEGGPSVFLFPPKPKDTLMISRTPEVTCVVVDVSHEDPEVKFNWYVDGVEVHNAKTKPREEQYNSTYRVVSVLTVLHQDWLNGKEYKCKVSNKALPASIEKTISKAKGQPREPQVCTLPPSREEMTKNQVSLSCAVKGFYPSDIAVEWESNGQPENNYKTTPPVLDSDGSFFLVSKLTVDKSRWQQGNVFSCSVMHEALHNHYTQKSLSLSPGGGGGSGGGGSGGGGSGGGGGSQLYSALANKCCHVGCTKRSLARFC
chain 2: DKTHTCPPCPAPEFEGGPSVFLFPPKPKDTLMISRTPEVTCVVVDVSHEDPEVKFNWYVDGVEVHNAKTKPREEQYNSTYRVVSVLTVLHQDWLNGKEYKCKVSNKALPASIEKTISKAKGQPREPQVYTLPPCREEMTKNQVSLWCLVKGFYPSDIAVEWESNGQPENNYKTTPPVLDSDGSFFLYSKLTVDKSRWQQGNVFSCSVMHEALHNHYTQKSLSLSPGGGGGSGGGGSGGGGSGGGGGSSWMEEVIKLCGRELVRAQIAICGMSTWS
B4: RELAX0022 (Fc fusion)
chain 1: B1 chain 2 with C130Y
chain 2: B1 chain 1 with C135S
B5: RELAX0053 (Fc fusion)
chain 1: DKTHTACPPCPAPEFEGGPSVFLFPPKPKDTLMISRTPEVTCVVVDVSHEDPEVKFNWYVDGVEVHNAKTKPREEQYNSTYRVVSVLTVLHQDWLNGKEYKCKVSNKALPASIEKTISKAKGQPREPQVYTLPPCREEMTKNQVSLWCLVKGFYPSDIAVEWESNGQPENNYKTTPPVLDSDGSFFLYSKLTVDKSRWQQGNVFSCSVMHEALHNHYTQKSLSLSPGGGGGSGGGGSGGGGSGGGGGSQLYSALANKCCHVGCTKHSLARFC
chain 2: B3 chain 2 with Y129C, C134S, W146S, L148A, Y187V
B6: RELAX0075 (Fc fusion)
chain 1: B3 chain 1 with C129Y, S134C, S146W, A148L, V187Y, F270I
chain 2: B3 chain 2 with Y129C, C134S, W146S, L148A, Y187V
B7: RELAX0070 (Fc fusion)
chain 1: B3 chain 1 with C129Y, S134C, S146W, A148L, V187Y, R269I
chain 2: B3 chain 2 with Y129C, C134S, W146S, L148A, Y187V
B8: RELAX0072 (Fc fusion)
chain 1: B3 chain 1 with C129Y, S134C, S146W, A148L, V187Y, R269A
chain 2: B3 chain 2 with Y129C, C134S, W146S, L148A, Y187V
B9: RELAX0071 (Fc fusion)
chain 1: B3 chain 1 with C129Y, S134C, S146W, A148L, V187Y, R269Q
chain 2: B3 chain 2 with Y129C, C134S, W146S, L148A, Y187V
B10: RELAX0063 (Fc fusion)
chain 1: B3 chain 1 with C129Y, S134C, S146W, A148L, V187Y, F270A
chain 2: B3 chain 2 with Y129C, C134S, W146S, L148A, Y187V
B11: RELAX0069 (Fc fusion)
chain 1: B3 chain 1 with C129Y, S134C, S146W, A148L, V187Y, R269M
chain 2: B3 chain 2 with Y129C, C134S, W146S, L148A, Y187V
B12: RELAX0074 (Fc fusion)
chain 1: B3 chain 1 with C129Y, S134C, S146W, A148L, V187Y, R269S
chain 2: B3 chain 2 with Y129C, C134S, W146S, L148A, Y187V
B13: RELAX0073 (Fc fusion)
chain 1: B3 chain 1 with C129Y, S134C, S146W, A148L, V187Y, R269Y
chain 2: B3 chain 2 with Y129C, C134S, W146S, L148A, Y187V

Target: T1, human RXFP1
Test: cell-based or functional assay

Compared with B1, B2 is 1.9-fold higher in “EC50 hRXFP1 (M), cAMP HTRF assay” value: 4.41e-11 M for the first, 8.27e-11 M for the second.

B3 and B4 are within 1.5-fold of each other in “EC50 hRXFP1 (M), cAMP HTRF assay” value: 4.6e-11 M for the first, 4.74e-11 M for the second.

Target: T2, mouse RXFP1
Test: cell-based or functional assay

B1 and B2 are within 1.5-fold of each other in “EC50 mRXFP1 (M), cAMP HTRF assay” value: 2.79e-11 M for the first, 4.14e-11 M for the second.

Compared with B3, B4 is 2.1-fold higher in “EC50 mRXFP1 (M), cAMP HTRF assay” value: 1.56e-11 M for the first, 3.28e-11 M for the second.

Target: T3, human RXFP2 (human, UniProt Q8WXD0 1-754)
T3 sequence (Q8WXD0 whole entry): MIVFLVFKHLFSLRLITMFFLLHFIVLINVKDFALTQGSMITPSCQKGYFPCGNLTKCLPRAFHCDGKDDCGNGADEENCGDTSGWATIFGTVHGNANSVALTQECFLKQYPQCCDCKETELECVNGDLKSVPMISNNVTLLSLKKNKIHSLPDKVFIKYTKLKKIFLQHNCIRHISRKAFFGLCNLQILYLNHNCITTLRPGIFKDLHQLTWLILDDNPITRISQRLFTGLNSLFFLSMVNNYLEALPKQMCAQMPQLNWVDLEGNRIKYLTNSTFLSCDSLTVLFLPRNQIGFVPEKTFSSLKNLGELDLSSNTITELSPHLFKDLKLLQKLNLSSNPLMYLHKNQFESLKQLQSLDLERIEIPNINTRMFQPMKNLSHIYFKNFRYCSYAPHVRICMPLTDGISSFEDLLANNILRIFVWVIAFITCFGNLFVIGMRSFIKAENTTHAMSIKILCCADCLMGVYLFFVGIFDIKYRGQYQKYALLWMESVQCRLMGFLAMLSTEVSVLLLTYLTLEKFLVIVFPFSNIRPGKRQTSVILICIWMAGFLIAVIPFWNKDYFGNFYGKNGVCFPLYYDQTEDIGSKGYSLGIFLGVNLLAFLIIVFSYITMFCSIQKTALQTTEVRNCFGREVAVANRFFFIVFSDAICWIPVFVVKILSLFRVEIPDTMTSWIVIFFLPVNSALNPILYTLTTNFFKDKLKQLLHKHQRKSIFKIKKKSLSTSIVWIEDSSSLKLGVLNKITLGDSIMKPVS
Test: cell-based or functional assay

B1 and B3 are within 1.5-fold of each other in “EC50 hRXFP2 (M), cAMP HTRF assay” value: 3.54e-08 M for the first, 4.26e-08 M for the second.

Target: T1, human RXFP1
Test: cell-based or functional assay
Remark: another data set of the same source

B5 and B6 are within 1.5-fold of each other in “EC50 hRXFP1 (M), cAMP HTRF assay” value: 7.15e-11 M for the first, 9.47e-11 M for the second.

B7 and B8 are within 1.5-fold of each other in “EC50 hRXFP1 (M), cAMP HTRF assay” value: 6.67e-11 M for the first, 8.53e-11 M for the second.

Going from B9 to B10, the “EC50 hRXFP1 (M), cAMP HTRF assay” value rises from 6.87e-11 M to 1.96e-10 M (2.9-fold).

B11 and B12 are within 1.5-fold of each other in “EC50 hRXFP1 (M), cAMP HTRF assay” value: 5.76e-11 M for the first, 5.45e-11 M for the second.

B13 was tested, and the “EC50 hRXFP1 (M), cAMP HTRF assay” value was 5.7e-11 M.

Target: T2, mouse RXFP1
Test: cell-based or functional assay
Remark: another data set of the same source

B5 and B6 are within 1.5-fold of each other in “EC50 mRXFP1 (M), cAMP HTRF assay” value: 4.36e-11 M for the first, 6.14e-11 M for the second.

B7 and B8 are within 1.5-fold of each other in “EC50 mRXFP1 (M), cAMP HTRF assay” value: 5.02e-11 M for the first, 4.03e-11 M for the second.

B9 and B10 are within 1.5-fold of each other in “EC50 mRXFP1 (M), cAMP HTRF assay” value: 3.93e-11 M for the first, 4.46e-11 M for the second.

B11 and B12 are within 1.5-fold of each other in “EC50 mRXFP1 (M), cAMP HTRF assay” value: 3.69e-11 M for the first, 4.53e-11 M for the second.

With B13 the “EC50 mRXFP1 (M), cAMP HTRF assay” value was 4.15e-11 M.

Target: T3, human RXFP2
Test: cell-based or functional assay
Remark: another data set of the same source

B5 and B6 cannot be ordered by “EC50 hRXFP2 (M), cAMP HTRF assay” value: over 1.79e-07 M for the first, over 1.43e-07 M for the second.

Going from B7 to B8, the “EC50 hRXFP2 (M), cAMP HTRF assay” value rises from 1.07e-07 M to over 2.3e-07 M.

First: B9
Second: B10
The “EC50 hRXFP2 (M), cAMP HTRF assay” value of the first is lower: 1.15e-07 M for the first, over 1.38e-07 M for the second.

Going from B11 to B12, the “EC50 hRXFP2 (M), cAMP HTRF assay” value falls from over 1.62e-07 M to 9.21e-08 M.

B13 was tested, and the “EC50 hRXFP2 (M), cAMP HTRF assay” value was 8.63e-08 M.
